Like-named read-outs stand apart in the source and are kept apart here.

In assay [1] the target is NGF (species not stated) (Homo sapiens (Human)) (UniProt P01138). Put plainly: cell-based or functional assay.
The target is the same in assay [2]. Put plainly: SPR, Biacore 8K; captured on Protein A chip, NGF in solution (the table does not say human or rat).
In assay [3] the target is T1, human Nerve Growth Factor (human, UniProt P01138 122-241). Put plainly: cell-based or functional assay.
The target of assay [4] is NGF (species not stated) (Homo sapiens (Human)) (UniProt P01138). In words: cell-based or functional assay. The source holds these as a separate data set.
Assay [5] has as its target T1, human Nerve Growth Factor. In words: SPR, Biacore 8K; captured on Protein A chip, hNGF in solution, multi-cycle kinetics. On the technique in general: SPR reads the build-up and loss of mass on a sensor chip optically.

T1 sequence (P01138 122-241 limits assumed): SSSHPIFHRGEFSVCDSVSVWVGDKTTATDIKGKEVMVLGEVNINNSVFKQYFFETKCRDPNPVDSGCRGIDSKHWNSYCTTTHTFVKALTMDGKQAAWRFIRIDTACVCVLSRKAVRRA

On to “PetML319 (Human p75NTR ECD no stalk IgG1) (Fc fusion)”, for which, in assay [1], the Bottom (%), best-fit values, PathHunter TrkA activation assay is 9.5% and the IC50 (nM), PathHunter TrkA activation assay was 8.04 nM. The Kd (in general, the free concentration of one partner at which half of the binding sites on the other are occupied at equilibrium, for simple one-to-one binding) in assay [2] stood at 0.358 nM.
Turning to “PetML308 (Human p75NTR ECD full stalk IgG1) (Fc fusion)”, in assay [1], the Bottom (%), best-fit values, PathHunter TrkA activation assay is 44.5%; the IC50 (nM), PathHunter TrkA activation assay came to 282 nM; the Top (%), best-fit values, PathHunter TrkA activation assay was found to be 105%. Also, the Kd in assay [2] was found to be 8.78 nM.

B1: Bedinvetmab (antibody, V domains shown)
VH: EVQLVESGGDLVKPGGSLRLSCVASGFTFSSHGMHWVRQSPGKGLQWVAVINSGGSSTYYTDAVKGRFTISRDNAKNTVYLQMNSLRAEDTAMYYCAKESVGGWEQLVGPHFDYWGQGTLVIVSS
VL: QSVLTQPTSVSGSLGQRVTISCSGSTNNIGILGASWYQLFPGKAPKLLVYGNGNRPSGVPDRFSGADSGDSVTLTITGLQAEDEADYYCQSFDTTLGAHVFGGGTHLTVL
B1: in assay [3], the “IC50 (nM), TF-1 cell proliferation inhibition” value stood at 0.89 nM and the “ICMAX (%), TF-1 cell proliferation inhibition” value is 96.8%. In assay [1], the Bottom (%), best-fit values, PathHunter TrkA activation assay was found to be 2.11%; the IC50 (nM), PathHunter TrkA activation assay stood at 1.14 nM; the Top (%), best-fit values, PathHunter TrkA activation assay came out at 93.5%. The molecule further displayed a Kd in assay [2] of 0.0073 nM. Also, in assay [4], the Bottom (%), best-fit, PathHunter TrkA activation assay was 5.35%; the IC50 (nM), PathHunter TrkA activation assay is 4.24 nM; the Top (%), best-fit, PathHunter TrkA activation assay stood at 123%; the maximal TrkA inhibition, PathHunter TrkA activation assay is 100%. Further, in assay [5], binding was characterised by a dissociation constant (Kd) of 0.0073 nM.
